According to the nanobody polyreactivity screen of Harvey et al. (2022):

Test: yeast display, Sf9 membrane polyspecificity reagent, FACS + sequencing; frameworks hold sequencing errors
Method in brief: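 A nanobody's polyreactivity label depends on the gate it was sorted from. Yeast display cells were stained with 10% biotinylated, detergent-solubilized Sf9 membrane reagent for 1 hour at 4 °C, enriched on streptavidin microbeads and sorted by FACS. The low and high (top ~1%) gates were set on anti-HA fluorescence for expression and streptavidin fluorescence for reagent binding.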

QVLLQESGGGLVQAGGSLRLSCAASGSIFLFYTMGWSRQAPVKEREFVAGITLGTTTYNADSVKGRFTISRDNVKNTVYLQMNSLKPEDTAVYYCAVAVGHYTEFWYWGQGTQVTMSS
polyreactivity (PSR sort gate): high polyreactivity

QVLLQESGGGLVQAGGSLRLSCAASGSIFLFYTMGWYRQAPVKEREFVAGITLGTTTYNADSVKGRFTISRDNVKNTVYLQMNSLKPEATAVYYCAVAVGHYTVFWYWGQGTQVTMSS
polyreactivity (PSR sort gate): high polyreactivity

QVLLQESGGGLVQAGGSLRLSCAASGSIFLFYTMGWYRQAPVKEREFVAGITLGTTTYNADSVKGRFTISRDNVKNTVYLQMNSLKPEDTAVYYFAVAVGHYTEFWYWGQGTQVTMSS
polyreactivity (PSR sort gate): high polyreactivity

QVLLQESGGGLVQAGGSLRLSCAASGTISTDIRMGLYSLAPGKAREFVASIDGCSTTYYADSVKGRFTISRDNAKNTVYLKMNSLKPVDTAMYYCAAREATEFYLYYWGQGTQVTVSS
polyreactivity (PSR sort gate): low polyreactivity

QVLLQESGGGLVQAGGSLRQSCAASGNIFSAGGMGWYRQAPVNERELVAGIGTGTSTNYADSVKGRFTISRDNAKNTVYLQMNSLKPEDTAVYFCAAAFYSGLSHWYWGQGTQVTVSS
polyreactivity (PSR sort gate): low polyreactivity

QVLLQESGGLLQAGCSLRMSCAASGSISTALSMVWYRQAPGKERELVATISDGASTNYADSVKGRFTISRVNAKNTVYLQMNSLKPEDTEVYYCAAQSQYRPDHRYWGQGTQVTVSS
polyreactivity (PSR sort gate): high polyreactivity

QVLLVEAGGGLVQAGGSLRLSCAASGRIFRRYAMGWYRQAPGKERELVAAISSGGGSTYYADSVKGRFTISRDNAKNTVYLQMNSLKPEDTAVYYCNTDFYYDDVSQAHDYWGQGTQVTVSS
polyreactivity (PSR sort gate): high polyreactivity

QVLLVESAVGLVQAVGSLRLSCAASGSICYTNGMGWYRQAPGNERELVASITRSGGSTYYADSVKGRFTISRDNAKNSVYLQMNRLKPEDTAVYYCATSWGYRGLWGLRFDYWGQGTQVSVSS
polyreactivity (PSR sort gate): low polyreactivity

QVLLVESGGGFVQAGGSLRLSCSASGSIFSPYTMGWYRQATGKERELVAAISRGGNTYYADSVKGRFTISRDNAKNTVYLQMNSLKPEDTAVYYCAARAKYDRRTDGTSGYDYWGQGTQVTVSS
polyreactivity (PSR sort gate): low polyreactivity

QVLLVESGGGLVQAGGILRLSCAASGLTFTYYAMGWYRQAPGKERELVAAISRCGTGTYYADSVKGRFTISRDNAKNTVYLHMNSLKPEDTAVYYCATLPGRYFTANEYWGQGTQVTVSS
polyreactivity (PSR sort gate): high polyreactivity

QVLLVESGGGLVQAGGILRLSCAASGNILGYNAMGWSRQAPGKERELVAAISWIGGSTYYADSVKGRFTISRDNAKNTVYLQMNSLKQEDTAVYYCASRYRTYFTYEYWGQVTQVTVSS
polyreactivity (PSR sort gate): low polyreactivity

QVLLVESGGGLVQAGGSHRLSCAASGITIRFYAMGWYRQAPGKEREFHAAISRSGSTYYADSVKGRFTISRDNAKNTVYLHLNSVKPEDTAVYYCAADSYRSAQGLDYWGQGTQVTVSS
polyreactivity (PSR sort gate): high polyreactivity

QVLLVESGGGLVQAGGSLRLSCAASGFTFGVYAMRWYRQAPGKERELVAAISTTVGSTYYADSVKGRFTISRDNAKNTVYLQMNSLKPEDTAVYYCHYPYDYWGQATQVTVSS
polyreactivity (PSR sort gate): low polyreactivity

QVLLVESGGGLVQAGGSLRLSCAASGLTFRYYAMGWYRQAPGKERELVAAITSGGSTYYADSVKGRFTISRDNAKNTVYLQMNSLKPEDTAVYYCNKLLGRTVRHDYWGQGTQVTVSS
polyreactivity (PSR sort gate): high polyreactivity

QVLLVESGGGLVQAGGSLRLSCAASGRTFRGNAMGWYRQAPGKERELVAAISRSGGTTYYADSVKGRFTISRYNAKNTVYLQMNSLKPEDTAVYYCNRGWATWHGPDDYWGQGTQVTVSS
polyreactivity (PSR sort gate): high polyreactivity

QVLLVESGGGLVQAGGSLRLSCAASGRTFYNYSMGWYRQAPGKERELVAAISGGGTTNYADTVKGRFTISRDNAKNTVYLQMNSLKPEDTAVYSCNAARTRWATGYDYWGQGTQVTVSS
polyreactivity (PSR sort gate): low polyreactivity

QVLLVESGGGLVQAGGSLRLSCAASGSIFGAYAMGWYRQAPGKVRELVAAINYGGATTYYADSVKGRYTISRDLAKNTVYLQMNSLKPQDTAVYYCAADNDTDHSSATYGYDYWGQGTQVTVSS
polyreactivity (PSR sort gate): low polyreactivity

QVLLVESGGGLVQAGGSLRLSCAASGSIFGYKDMGWYRQAPGKERELVASITRGGGRTRYADSVKGRFTISRDNAKNTVYLQMNSLKPEDTAVYYCAADKLSYSYVRPPRNHEDYWGQGTQVTVSS
polyreactivity (PSR sort gate): low polyreactivity

QVLLVESGGGLVQAGGSLRLSCAASGSTIRYYAMGWYRQAPGKERELVAAISWRGGSTYYADSVKGRFTISRDNAKYTVYLQMNSLKPEDTAVYYCAVEAVAYGFFHYDYWGQGTQVTVSS
polyreactivity (PSR sort gate): high polyreactivity

QVLLVESGGGLVQAGGSLRLSCSASGNAMGWYRQAPGKERELVAAITRRGGSTYYADSVKGSFTISRDNAKNTVYLQMNSLKPEDTAVYYCADDNPSYNLWYGYWGQGTQVTVSS
polyreactivity (PSR sort gate): low polyreactivity

QVLLVESGGGLVQAGGSLRLSGAASGRTFRRNAIGWYRQAPGKERELVAAISASGGSTYYADSVKGRFTISRDNAMNTVYLEMNSLKPEDTADYYCAAVSQTTYWGQGTQVTVSS
polyreactivity (PSR sort gate): high polyreactivity

QVLLVESGGGLVQAGGSLRVSCAASGFTFYGYAMGWYRQAPGKERELVAARSSTGGRTYYADSVKGRFTISRDNAKNTVYLQMNSLKPEDTAVYYCNKVWRFAEHNYWGQGTQVTVSS
polyreactivity (PSR sort gate): high polyreactivity

QVLLVESGGGLVQAGGSLRVSCAASGSTFPYYAMGWYRQAPGKERELVAAITSSASTYYADSVKGRFTISRDNAKNTVYLQMNSLKPEDTAVYYCAVRTPYRLSRWRVGYWGQGTQVTVSS
polyreactivity (PSR sort gate): high polyreactivity

QVLLVESGGGLVQAGGSLSLSCAASGLIFVNAMGWYRQAPGKEREFVAAITYSTGSTYYADSVKGRFTISRDNAKNTVYLQMNSLKPEDTAFYYCAKDRSGHGTERDDWGQGTQVTVSS
polyreactivity (PSR sort gate): low polyreactivity

QVLLVESGGGLVQAGGSLSLSCAASGRTFFNNAMGWYRQAPGQEREFVAAISRSGSSTYYAVSVKGRFTISRDNAKNTVYLQMNSLKPEHTAVYYCASYLYYYSAYGYWGQGTQVTVSS
polyreactivity (PSR sort gate): high polyreactivity

QVNLVESGGGLVQAGCSLRITCADSGRTFKHNAMGWYRQAPGKERQLVAAISRRGGSTYFADSVKGRFTISRDNAKNTVYLQMNRLKPDDTAVYYCNAGYSTFLQYYGEVWKKGCYWGQGTQVTVSS
polyreactivity (PSR sort gate): high polyreactivity

QVPLVESGGGLLQAGGSLRLSCSASGYTFSKYAMGWYRQAPGKERELVAAISFSGGSTYYADSVKGRFTISRDNAKNTVYLLMNSLKPEDTAVYYCDKYTITNYDYWGQGTLVTVSS
polyreactivity (PSR sort gate): low polyreactivity

QVPLVESGGGLVQAGGSLRIRCAASGSIFAGNALGWYRQAPGKEWELVAAIARRGGSTYYADSVKGRFTISRDNAKNTVYLQMNSLKPEDTAVYYCNDLLRYAYHAAFGYWGQATQVTVSS
polyreactivity (PSR sort gate): high polyreactivity

QVPLVESGGGLVQAGGSLRISCAASGSILQYYALGWYRQAPGKERELVASISSSSGSTYYADSVKGRFTISRDNAKNTVYLQMNSLKPEDTAVYYCNARGWTLAADFGYWGQATQVTVSS
polyreactivity (PSR sort gate): low polyreactivity

QVPLVESGGGLVQAGGSLRISCAASGSTIVGYSMGWYRQAHGKERELVADITSGGGITYYADSVKGRFTISRDNAKNTVYLQMNSLKPEYSAVYYCAARVVEIFHWAGDYWGQGTQVTVSS
polyreactivity (PSR sort gate): low polyreactivity

QVPLVESGGGLVQAGGSLRLSCAASGFIFSSNARGWYRQAPGKERELVARITWSDGSTYYADSVKGRFTISRDNAKKTVYLQMNSLKPEDTAVYYCAKGRDATHYEYYLYSMDYWGQGTQVTVSS
polyreactivity (PSR sort gate): low polyreactivity

QVPLVESGGGLVQAGGSLRLSCAASGGIFRLYAMGWYRLAPGKEREVVASLSGDGDSTYYADSVQGRFTISRDNAKNTVYLQMNSLKPEDTAVYYCARQPYYFLSRPPYFRKYYYWGQGTQVTVSS
polyreactivity (PSR sort gate): high polyreactivity

QVPLVESGGGLVQAGGSLRLSCAASGHTFRFYTMGWYRQAPGKEREFVAAIRRRTGSTYYADSVKGRFTISRDNAKNTVYLQMNSLKPEDTAVYYCAAESRYYYRFYYGYHYDYWGQGTQVTVSS
polyreactivity (PSR sort gate): high polyreactivity

QVPLVESGGGLVQAGGSLRLSCAASGITFYYYTMGWYIQAPGKERELVAGITRGGRRYDADSVKGRFTISRDNAKNPVYLQMNSLKPEDTAVYYCNADDDIQYKGRYNYWGQGTQVTVSS
polyreactivity (PSR sort gate): low polyreactivity

QVPLVESGGGLVQAGGSLRLSCAASGRIFGTNTMGWYRQAPGKEREWVAAITWSGGSTYYADSGTGRFTISRDNAKNPVYLQMNSLNPEDTAGYYCNVESAYAYHGPVDYWGQGTQVTVSS
polyreactivity (PSR sort gate): low polyreactivity

QVPLVESGGGLVQAGGSLRLSCAASGRIFLRYDIGWYRKAPGKERELVAAIPRSGGSTYYADSVKGRFTISRDNAKNTVYLQMNSLKPEDTAVYYCAARRWGRVYTTYTGGYWGQGTQVTVSS
polyreactivity (PSR sort gate): high polyreactivity

QVPLVESGGGLVQAGGSLRLSCAASGRIFYFNDMGWYRQAPGKERELVAAISRSGGSTYYADSVKGRFTISRDNAKNTVYLQMNSLKPEDTAVYYCAAGRDTWPSTYYYWGQGTQVTVSS
polyreactivity (PSR sort gate): low polyreactivity

QVPLVESGGGLVQAGGSLRLSCAASGSTFTRYAMGWYRQAPGKEREFVAGISSRGSRTYYADSVKGRFTISRDNAKNTVYLQMNSLKPEDTAVYYCAVSGNHVSPPYGYWGQGTQLTVSS
polyreactivity (PSR sort gate): high polyreactivity

QVPLVESGGGLVQAGGSLRLSCAASGSTFVRYAMGWYRQAPGKERELVAGISRVGNTYYADSVKGRFTISRDNAKNTVYLQMNSLKPEDTAVYYCARSQAVYDGWFAKFGYWGQGTQVTVSS
polyreactivity (PSR sort gate): high polyreactivity

QVPLVESGGGLVQAGGSLRLSCAASGSTLGRYAMGWYRQAPGKERELVASITWSDDSTYYADSEKGRFTISRDNAKNTVYLQMNSLKPEDTAVYYCAAAGNLYTYRFYYWGQGTQVTLSS
polyreactivity (PSR sort gate): low polyreactivity

QVPLVESGGGLVQAGGSLRLSCAASGSTLTSNAMGWYRQAPGKERELVAAIRSGGSTNYADSVKGRFTISRDNAKNTVYLQMNSLKPEDTAVYYCNTDFLWQGYGYSRVSYDYWGQGTQVTVSS
polyreactivity (PSR sort gate): low polyreactivity

QVPLVESGGGLVQAGGSLRLSCAASGSTLWVYAMGWSRQAPGKERELVAAITQSTGDTHYADSVKGRFTISRDNAKNTVYLQMNSLKPEDTAVYYCAADSYLSVYDPYGDWGQGTQVTVSS
polyreactivity (PSR sort gate): low polyreactivity

QVPLVESGGGLVQAGGSLSLSCAASGNIFPSYVMGWYSQAPGKERELVAAITGNGGSTYYADSVKGRFTISRDNAKNTVYLQMNSLTAEDTEVYYCATSAPRLLRYDSSSSPSYDNWGQGTKVTVSS
polyreactivity (PSR sort gate): low polyreactivity
